Measured values from paper PMC7085345 (The Biochemical journal, 2019).
Read-outs that look alike come from different tables or passages of the source.

Key:
Assay in all cases: FRET or BRET
FRET or BRET [1] = molecular target: the molecule itself
FRET or BRET [2] = molecular target: the molecule itself; remark: listed apart in the source
FRET or BRET [3] = molecular target: the molecule itself; remark: listed apart in the source
FRET or BRET [4] = molecular target: the molecule itself; remark: listed apart in the source
FRET or BRET [5] = molecular target: the molecule itself; remark: listed apart in the source

B1: CYP2E1-BODIPY(1:2): N-terminally truncated (Δ3–20), C-terminally His-tagged CYP2E1 labeled with BODIPY 577/618 maleimide at 1:2 protein-to-label ratio (enzyme, human, UniProt P05181 1-493, looked up)
chain: MSSMWRQVHSSWNLPPGPFPLPIIGNLFQLELKNIPKSFTRLAQRFGPVFTLYVGSQRMVVMHGYKAVKEALLDYKDEFSGRGDLPAFHAHRDRGIIFNNGPTWKDIRRFSLTTLRNYGMGKQGNESRIQREAHFLLEALRKTQGQPFDPTFLIGCAPCNVIADILFRKHFDYNDEKFLRLMYLFNENFHLLSTPWLQLYNNFPSFLHYLPGSHRKVIKNVAEVKEYVSERVKEHHQSLDPNCPRDLTDCLLVEMEKEKHSAERLYTMDGITVTVADLFFAGTETTSTTLRYGLLILMKYPEIEEKLHEEIDRVIGPSRIPAIKDRQEMPYMDAVVHEIQRFITLVPSNLPHEATRDTIFRGYLIPKGTVVVPTLDSVLYDNQEFPDPEKFKPEHFLNENGKFKYSDYFKPFSTGKRVCAGEGLARMELFLLLCAILQHFNLKPLVDPKDIDLSPIHIGFGCIPPRYKLCVIPRS
modifications: BODIPY 577/618 maleimide on cysteines, two molar equivalents (presumably Cys488 and Cys261, Cys268 and/or Cys480)
FRET or BRET [1]
  (Lipid/CYP2E1)50%: 393 lipid-to-P450 molar ratio
FRET or BRET [2]
  (Lipid/CYP2E1)50%: 4320 lipid-to-P450 molar ratio
FRET or BRET [3]
  (Lipid/CYP2E1)50%: 383 lipid-to-P450 molar ratio
FRET or BRET [4]
  (Lipid/CYP2E1)50%: 5890 lipid-to-P450 molar ratio
FRET or BRET [5]
  (Lipid/CYP2E1)50%: 2440 lipid-to-P450 molar ratio
